Laboratory results taken from patent US7485771B2, “Polypeptides and polynucleotides relating to the α- and β-subunits of glutamate dehydrogenases and methods of use” (University of Florida Research Foundation, Inc., priority 1995, dated 2009).
Like-named read-outs stand apart in the source and are kept apart here.

Key:
[1] = biological target: T1, Chlorella sorokiniana chloroplastic NADP-specific glutamate dehydrogenase (NADP-GDH) α-homohexamer, native (mature α-subunit SEQ ID NO. 24) (Chlorella sorokiniana, UniProt P28998, E496R/E82D/G270P/L83V); assay: Km values, aminating reaction, α-homohexameric isoenzyme; assay type: biochemical; details: NH4^+ range, depending on the NADPH concentration (b9)
T1 construct: endogenous in cells; host or cells: Chlorella sorokiniana (UTEX-1230; 3B2NA), cultured in 29 mM ammonium medium; enzyme purified from the cells
T1 sequence (P28998 with tags, fused parts or gaps E82D/L83V/G270P/E496R): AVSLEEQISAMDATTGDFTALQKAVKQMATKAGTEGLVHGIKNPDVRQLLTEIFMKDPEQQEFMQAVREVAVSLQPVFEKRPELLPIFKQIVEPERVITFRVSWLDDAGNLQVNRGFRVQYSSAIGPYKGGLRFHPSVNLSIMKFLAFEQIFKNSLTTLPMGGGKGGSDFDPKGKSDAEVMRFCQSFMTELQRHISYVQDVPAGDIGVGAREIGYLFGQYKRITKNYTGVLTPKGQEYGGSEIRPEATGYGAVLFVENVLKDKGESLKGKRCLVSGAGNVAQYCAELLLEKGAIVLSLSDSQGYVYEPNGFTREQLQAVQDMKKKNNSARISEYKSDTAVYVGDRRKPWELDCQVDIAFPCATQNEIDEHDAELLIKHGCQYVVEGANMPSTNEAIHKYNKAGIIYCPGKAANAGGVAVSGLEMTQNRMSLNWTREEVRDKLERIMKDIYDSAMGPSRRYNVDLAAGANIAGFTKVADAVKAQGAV
Excerpt: (§1) The chloroplastic glutamate dehydrogenase α- and β-isoenzymes used in the following experiments are naturally produced by an organism characterized as Chlorella sorokiniana.
(§2) C. sorokiniana culture conditions. For kinetic characterization in both the aminating and deaminating directions, the α- and β-holoenzymes were purified from cells that were accumulating only one form of homohexameric GDH isoenzyme.
(§3) The C. sorokiniana cells (UTEX-1230, University of Texas algal culture collection; 3B2NA, Robert R. Schmidt, University of Florida, Microbiology Cell Science Department) were cultured autotrophically as previously described by Prunkard et al., supra in a modified basal salts medium. […]
(§4) For preparative nondenaturing PAGE, a 3 cm tall 7% acrylamide (w/v, 28 acrylamide: 0.735 bis-acrylamide, pH 8.8) resolving gel, and a 2 cm tall 2% acrylamide (w/v, 1.6 acrylamide: 0.4 bis-acrylamide, pH 6.6) stacking gel were cast in the 28 mm ID gel tube of the Model 491 Prep Cell. […] The enzyme in the pooled fractions in 10 mM KPO4 (pH 6.2), 0.1 mM NADP^+ was concentrated by Diaflow ultrafiltration to 1 mg/mL as determined by the method of Bradford, using BSA as a standard. […] The purity of the preparation was determined by silver-staining to visualize proteins resolved by 10% (w/v) Tris-Tricine SDS-PAGE (Schagger, H., G. von Jagow [1987] Anal. Biochem. 166:368-379). […]

[2] = biological target: T2, Chlorella sorokiniana chloroplastic NADP-specific glutamate dehydrogenase (NADP-GDH) β-homohexamer, native (mature β-subunit SEQ ID NO. 26) (Chlorella sorokiniana, UniProt P28998, E496R/E82D/G270P/L83V); assay: Km values, aminating reaction, β-homohexameric isoenzyme; assay type: biochemical
T2 construct: endogenous in cells; host or cells: Chlorella sorokiniana (UTEX-1230; 3B2NA), cells cultured in 1 mM or 29 mM ammonium medium; enzyme purified from the cells
T2 sequence (P28998 49-523 E82D/L83V/G270P/E496R): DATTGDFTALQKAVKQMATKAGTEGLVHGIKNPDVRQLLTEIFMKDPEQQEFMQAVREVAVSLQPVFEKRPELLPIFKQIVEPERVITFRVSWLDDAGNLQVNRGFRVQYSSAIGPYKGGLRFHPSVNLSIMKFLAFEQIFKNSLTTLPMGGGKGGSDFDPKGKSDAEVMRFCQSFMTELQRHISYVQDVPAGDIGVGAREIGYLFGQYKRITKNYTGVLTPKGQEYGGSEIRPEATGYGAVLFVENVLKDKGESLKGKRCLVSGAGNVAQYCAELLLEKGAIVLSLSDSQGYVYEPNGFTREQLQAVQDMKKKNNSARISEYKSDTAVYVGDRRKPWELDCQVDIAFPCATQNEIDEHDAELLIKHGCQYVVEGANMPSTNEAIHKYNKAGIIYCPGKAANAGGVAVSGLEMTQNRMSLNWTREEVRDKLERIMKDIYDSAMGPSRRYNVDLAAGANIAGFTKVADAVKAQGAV
Excerpt: as §1, §2, §3
(§5) The NADP-GDH β-isoenzyme was purified from a mixture of cells cultured for 240 minutes in 1 mM ammonium medium (14 g), 90 minutes in 1 mM ammonium medium (6 g), and for 20, 40, 60, and 80 minutes in 29 mM ammonium medium (1 g/time point) according to Bascomb and Schmidt, supra. […] The NADP-GDH in the pooled fractions was concentrated via Diaflow ultrafiltration to 2 mg/ml protein, as determined by the method of Bradford (Bradford, M. M. [1976] Anal. Biochem. 72:248-254), and stored at 4° C. until further use. After resolution of the proteins by 8% (w/v) Tris-Tricine SDS-PAGE, the purity of the preparation was determined by silver staining. […]

[3] = biological target: T2, Chlorella sorokiniana chloroplastic NADP-specific glutamate dehydrogenase (NADP-GDH) β-homohexamer, native (mature β-subunit SEQ ID NO. 26); details: β-homohexamer purified from Chlorella cells (catabolic form), non-allosteric; read-out: ammonium Km; cited from earlier work
[4] = substrate: NC(=O)C1=CN([C@@H]2O[C@H](COP(=O)(O)OP(=O)(O)OC[C@H]3O[C@@H](n4cnc5c(N)ncnc54)[C@H](OP(=O)(O)O)[C@@H]3O)[C@@H](O)[C@H]2O)C=CC1; assay: Km values, aminating reaction, α-homohexameric isoenzyme; assay type: biochemical, Chlorella sorokiniana; details: other: α-homohexamer, 38.5 °C
Excerpt: as §1, §2, §3, §4

[5] = substrate: NC(=O)c1ccc[n+]([C@@H]2O[C@H](COP(=O)([O-])OP(=O)(O)OC[C@H]3O[C@@H](n4cnc5c(N)ncnc54)[C@H](OP(=O)(O)O)[C@@H]3O)[C@@H](O)[C@H]2O)c1; assay: Km values, deaminating reaction, α-homohexameric isoenzyme; assay type: biochemical, Chlorella sorokiniana; details: other: α-homohexamer, 38.5 °C
Excerpt: as §1, §2, §3, §4

[6] = substrate: N[C@@H](CCC(=O)O)C(=O)O; assay: as above; assay type: biochemical, Chlorella sorokiniana; details: other: α-homohexamer, 38.5 °C
Excerpt: as §1, §2, §3, §4

[7] = substrate: O=C(O)CCC(=O)C(=O)O; assay: purified protein, by the assay type; details: other: β-homohexamer, aminating reaction; 38.5 °C
[8] = substrate: NC(=O)C1=CN([C@@H]2O[C@H](COP(=O)(O)OP(=O)(O)OC[C@H]3O[C@@H](n4cnc5c(N)ncnc54)[C@H](OP(=O)(O)O)[C@@H]3O)[C@@H](O)[C@H]2O)C=CC1; assay: Km values, aminating reaction, β-homohexameric isoenzyme; assay type: biochemical, Chlorella sorokiniana; details: other: β-homohexamer, 38.5 °C
Excerpt: as §1, §2, §3, §5

[9] = substrate: NC(=O)c1ccc[n+]([C@@H]2O[C@H](COP(=O)([O-])OP(=O)(O)OC[C@H]3O[C@@H](n4cnc5c(N)ncnc54)[C@H](OP(=O)(O)O)[C@@H]3O)[C@@H](O)[C@H]2O)c1; assay: Km values, deaminating reaction, β-homohexameric isoenzyme; assay type: biochemical, Chlorella sorokiniana; details: other: β-homohexamer, 38.5 °C
Excerpt: as §1, §2, §3, §5

[10] = substrate: N[C@@H](CCC(=O)O)C(=O)O; assay: as above; assay type: biochemical, Chlorella sorokiniana; details: other: β-homohexamer, 38.5 °C
Excerpt: as §1, §2, §3, §5

Q: What does the source list for `N` [NH4^+, ammonium]?
A: Km [1]: 0.02 to 3.5 mM; Km [2]: 77 mM; Km [3]: ~75 mM

B1: Chlorella sorokiniana chloroplastic NADP-specific glutamate dehydrogenase (NADP-GDH) α-homohexamer, native (mature α-subunit SEQ ID NO. 24) (Chlorella … (protein)
chain: T1 sequence (P28998 with tags, fused parts or gaps E82D/L83V/G270P/E496R)
notes: endogenous in cells; host or cells: Chlorella sorokiniana (UTEX-1230; 3B2NA), cultured in 29 mM ammonium medium; enzyme purified from the cells
Q: Which Km [4] does the source give for B1 here?
A: The Km was 0.14 mM.

Q: And the Km [5]?
A: The Km was 0.04 mM.

Q: What about the Km [6] of the same molecule?
A: The Km was 38.2 mM.

B2: Chlorella sorokiniana chloroplastic NADP-specific glutamate dehydrogenase (NADP-GDH) β-homohexamer, native (mature β-subunit SEQ ID NO. 26) (Chlorella … (protein)
chain: T2 sequence (P28998 49-523 E82D/L83V/G270P/E496R)
notes: endogenous in cells; host or cells: Chlorella sorokiniana (UTEX-1230; 3B2NA), cells cultured in 1 mM or 29 mM ammonium medium; enzyme purified from the cells
Q: Which Km [7] does the source give for B2 here?
A: The Km was 12 mM.

Q: And the Km [8]?
A: Its Km is 0.14 mM.

Q: What about the Km [9] of the same molecule?
A: Its Km is 0.04 mM.

Q: What about the Km [10] of the same molecule?
A: The Km was 32.3 mM.
